Laboratory results taken from CN114437215A (SHANGHAI MAIJI BIOTECHNOLOGY CO LTD, dated 2022).

T1: 人CD38胞外段Flag标签蛋白 hCD38-ECD-Flag (human, UniProt P28907 43-300)
T1 construct: range 43-300; No linker between CD38 and the tag is stated; also called hCD38-Flag
T1 sequence: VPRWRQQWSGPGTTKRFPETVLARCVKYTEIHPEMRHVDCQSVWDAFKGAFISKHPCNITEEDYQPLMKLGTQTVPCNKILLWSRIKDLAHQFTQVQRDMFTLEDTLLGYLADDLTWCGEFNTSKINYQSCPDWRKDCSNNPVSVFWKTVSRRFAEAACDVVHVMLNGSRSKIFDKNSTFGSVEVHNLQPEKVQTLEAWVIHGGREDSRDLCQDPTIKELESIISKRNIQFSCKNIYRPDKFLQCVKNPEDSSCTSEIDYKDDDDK

T2: 食蟹猴CD38胞外段Flag标签蛋白 cyno-CD38-ECD-Flag (cynomolgus monkey, UniProt Q5VAN0 44-301)
T2 construct: range 44-301; No linker between CD38 and the tag is stated; also called cyno-CD38-Flag
T2 sequence: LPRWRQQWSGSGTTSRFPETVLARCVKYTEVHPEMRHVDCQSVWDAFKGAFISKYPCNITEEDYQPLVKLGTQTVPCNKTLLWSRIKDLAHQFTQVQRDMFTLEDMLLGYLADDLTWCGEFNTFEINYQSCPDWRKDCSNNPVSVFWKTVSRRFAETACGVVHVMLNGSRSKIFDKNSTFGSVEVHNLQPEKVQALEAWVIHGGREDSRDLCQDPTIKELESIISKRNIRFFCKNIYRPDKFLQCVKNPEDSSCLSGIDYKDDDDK


Key:
[1] = biological target: T1, 人CD38胞外段Flag标签蛋白 hCD38-ECD-Flag; assay: SPR, Biacore T200; antibody captured on Protein A CM5 chip, hCD38-Flag as analyte
[2] = biological target: T2, 食蟹猴CD38胞外段Flag标签蛋白 cyno-CD38-ECD-Flag; assay: SPR, Biacore T200; antibody captured on Protein A CM5 chip, cyno-CD38-Flag as analyte

Kd [1] [nM] | koff [1] [s⁻¹] | kon [1] [M⁻¹ s⁻¹] | Kd [2] [nM] | koff [2] [s⁻¹] | kon [2] [M⁻¹ s⁻¹] | Binder
0.382 | 0.000101 | 264000 | 1.68 | 9.2e-05 | 54900 | 人源化抗人CD38单克隆抗体57H (antibody, human IgG1, kappa, V domains shown, also called 57号抗体的人源化抗体) VH: EVQLVESGGGLVQPGGSLRLSCAASGFTFSSFGMHWVRQAPGKGLEWVAYIGGDSNIIYYADTVKGRFTISRDNSKNTLYLQMNSLRAEDTAVYYCAKSHDYTMDYWGQGTLVTVSS VL: DIVMTQSPSSLAVSLGERVTITCKSSQSLLYSTNQKNYLAWFQQKPGQSPKLLIYWASTRESGVPDRFSGSGSGTDFTLTISSLQAEDVAVYYCQRYYNYPYTFGQGTKVEIKR
32.8 | 0.000975 | 29800 | 3.4 | 0.000208 | 61100 | 人源化抗人CD38单克隆抗体105H (antibody, human IgG1, kappa, V domains shown, Humanized IgG1; also called 105-Humanization; 105号抗体的人源化抗体) VH: QVQLVQSGAEVKKPGASVKVSCKASGYTFTSYWMHWVRQAPGQGLEWIGHINPSSGYSEYSQKFKDRATLTADKSTSTAYMELSSLRSEDTAVYYCEIYYYVSRYVGDSWGQGTLVTVSS VL: DIQMTQSPSSLSASVGDRVTITCRASQEISGYLSWLQQKPGKTIKRLIYAASTLDSGVPSRFSGSRSGSDFTLTISSLQPEDFATYYCLQYDSYPLTFGQGTKVEIKR
3.22 | 0.00198 | 612000 | 40.2 | 0.00393 | 97800 | 人源化抗人CD38单克隆抗体145H (antibody, human IgG1, kappa, V domains shown, also called 145号抗体的人源化抗体) VH: QVQLVQSGAEVKKPGASVKVSCKASGYTFTNYLIDWVRQAPGQGLEWIGLINPGSGSTKYNEKFKGRVTLTADKSTSTAYMELSSLRSEDTAVYYCAKTGTLPYWGQGTLVTVSS VL: DIQMTQSPSSLSASVGDRVTITCKASQNVGTSVAWYQQKPGKAPKLLIYSTSYRSSGVPSRFSGSGSGTDFTLTISSLQPEDFATYYCQQYGSYPLTFGQGTKVEIKR
0.065 | 9.53e-05 | 1.47e+06 | 0.405 | 0.000102 | 251000 | 人源化抗人CD38单克隆抗体116H (antibody, human IgG1, kappa, V domains shown, also called 116号抗体的人源化抗体) VH: QVTLKESGPALVKPTQTLTLTCTLSGFSLSTSRMGVGWIRQPPGKGLEWLAHIWWDDDKRYNPALKSRLTISKDTSSNQVFLKIASVDKEDTATYYCGRIEVGRGAWFAYWGQGTLVTVSS VL: EIVLTQSPATLSLSPGERVSVTCKASQDVVTTVAWYQQKPGQAPRTLIYSASYRYSGVPARFSGSGSGTDFTLTISSLEPEDFAVYYCQQYYTYPFTFGQGTKVEIKR
